{"source": "paper PMC4118443", "about": "(2014)", "target": "T1, NS5A 347-361 (Hepatitis C virus, UniProt P26664)", "T1 chain": "PKSPPVPPPRKKRTV", "experiment": "fluorescence titration"}
{"binder": "Bin1 SH3 (protein) LPPGFMFKVQAQHDYTATDTDELQLKAGDVVLVIPFQNPEEQDEGWLMGVKESDWNQHKELEKCRGVFPENFTERVP", "values": [{"measurement": "Kd", "value": 200, "unit": "nM"}]}
